Reference: PMC11050286

Molecular target: human calmodulin wild-type (pIRES-DsRed-HisB-cMyc-CaM WT) (human) (UniProt P0DP23)

TRAM-34 sensitive whole-cell K+ current density at +60 mV, HEK293T cells co-transfected with SK4 R352D/R355D and CaM WT, 0.1 uM Cai (not different from background): 54 pA/pF
Substance: human SK4 R352D/R355D (from UniProt O15554 1-427) (natural protein)
